Laboratory results taken from PMC5724930 (Biochemistry, 2017).

Biological target: the molecule itself
Test: SEC; mixtures of the purified proteins; details in the Supporting Information

| Protein | stoichiometry N |
| --- | --- |
| PanD(K119A) (enzyme, E. coli, UniProt P0A790 1-126, looked up) MIRTMLQGKLHRVKVTHADLHYEGSCAIDQDFLDAAGILENEAIDIWNVTNGKRFSTYAIAAERGSRIISVNGAAAHCASVGDIVIIASFVTMPDEEARTWRPNVAYFEGDNEMKRTAAAIPVQVA | 4 |
| aspartate α-decarboxylase (PanD), wild type (from pET28apanD, for SEC) (enzyme, E. coli, UniProt P0A790 1-126, looked up) MIRTMLQGKLHRVKVTHADLHYEGSCAIDQDFLDAAGILENEAIDIWNVTNGKRFSTYAIAAERGSRIISVNGAAAHCASVGDIVIIASFVTMPDEEARTWRPNVAYFEGDNEMKRTAKAIPVQVA | 4 |
